Data: publication PMC10922510

Assays:
Test in all cases: BLI
[1] = molecular target: biotinylated human FcγRIIa-131H extracellular domain with AviTag (human) (UniProt P12318)
[2] = molecular target: biotinylated human FcγRIIIa-176V extracellular domain with AviTag (human) (UniProt P08637)
[3] = molecular target: biotinylated human FcγRIIa-131R extracellular domain with AviTag (human) (UniProt P12318)
[4] = molecular target: biotinylated human FcγRIIb extracellular domain with AviTag (human) (UniProt P31994)
Chain of UniProt P31994 (P31994 43-217): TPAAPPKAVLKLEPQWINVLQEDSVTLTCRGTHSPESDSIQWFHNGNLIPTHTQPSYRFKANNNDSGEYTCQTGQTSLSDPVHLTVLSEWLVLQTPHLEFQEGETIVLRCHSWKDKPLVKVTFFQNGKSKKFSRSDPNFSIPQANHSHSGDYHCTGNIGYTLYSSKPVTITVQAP

Chain of UniProt P08637 (P08637 17-208 F176V): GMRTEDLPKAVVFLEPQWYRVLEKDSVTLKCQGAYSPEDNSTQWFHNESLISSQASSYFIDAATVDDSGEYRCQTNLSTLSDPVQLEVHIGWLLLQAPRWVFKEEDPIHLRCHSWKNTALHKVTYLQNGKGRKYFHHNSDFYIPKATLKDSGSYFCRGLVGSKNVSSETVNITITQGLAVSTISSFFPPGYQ

Row | Substance | Kd [1] | Kd [2] | Kd [3] | Kd [4]
1 | human IgG1 trastuzumab, wild-type Fc (antibody) | 290 nM | 610 nM | 610 nM | 360 nM
2 | human IgG1 trastuzumab with Fc mutation P238D (antibody) |  |  |  | 310 nM
3 | human IgG1 trastuzumab with Fc mutation G236A (antibody) | 120 nM |  | 210 nM | 
